Experimental findings from patent US20240010680A1 (XIAMEN UNIVERSITY, published 2024) are described below.

Usually Kd stands for the concentration at which binding is half-saturated. A lower Kd goes with a tighter complex.

For the test, the target named is T1, hACE2 purified protein (human (printed as hACE2), UniProt Q9BYF1 18-740).
T1 construct: also called CM5-hACE2 chip
T1 sequence (Q9BYF1 18-740 limits assumed): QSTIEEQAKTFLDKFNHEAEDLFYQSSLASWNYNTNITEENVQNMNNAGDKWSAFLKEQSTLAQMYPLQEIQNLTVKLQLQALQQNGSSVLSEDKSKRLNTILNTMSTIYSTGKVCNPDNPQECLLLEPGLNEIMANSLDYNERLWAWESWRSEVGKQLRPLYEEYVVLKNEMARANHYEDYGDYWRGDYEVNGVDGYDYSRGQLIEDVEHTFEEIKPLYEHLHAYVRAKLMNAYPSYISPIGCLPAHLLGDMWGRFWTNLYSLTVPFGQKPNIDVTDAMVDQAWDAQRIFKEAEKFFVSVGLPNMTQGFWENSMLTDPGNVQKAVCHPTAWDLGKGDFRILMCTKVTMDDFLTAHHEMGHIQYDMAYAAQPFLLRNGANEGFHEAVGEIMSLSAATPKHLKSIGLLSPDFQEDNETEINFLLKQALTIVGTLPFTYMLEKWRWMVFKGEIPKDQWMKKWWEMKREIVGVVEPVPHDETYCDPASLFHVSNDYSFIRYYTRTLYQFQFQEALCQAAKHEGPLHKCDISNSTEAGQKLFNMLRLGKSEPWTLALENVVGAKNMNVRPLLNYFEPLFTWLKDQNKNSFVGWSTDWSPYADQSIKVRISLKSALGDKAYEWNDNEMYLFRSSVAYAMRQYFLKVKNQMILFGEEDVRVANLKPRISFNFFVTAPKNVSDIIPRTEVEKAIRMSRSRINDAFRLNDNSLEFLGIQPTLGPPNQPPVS
The experiment in a line: SPR (Biacore T200), hACE2 amine-coupled to CM5 chip, peptide as analyte.
Procedure: Specific Steps: [0031] a. The GE Biacore T200 is started, the Series S Sensor Chip CM5 is embedded into the GE Biacore T200, the PBS is degassed to obtain a degassed PBS, and the degassed PBS is used throughout the experiment; [0032] b. The NHS, the EDC, the ethanolamine, and the hACE2 (1 mg/mL) are placed on a feeding plate of the GE Biacore T200 according to volumes indicated by the GE Biacore T200 using Eppendorf (EP) tubes in sufficient quantities; [0033] c. […] A mobile solution (the degassed PBS) is closed, a command window is closed, and a report is served to obtain a CM5-hACE2 chip;
Specific Steps: [0038] a. Preparing different dilutions as samples for testing: the peptides in Table 1 to be tested at a concentration of 3 mmol/L (mM) are dissolved and sequentially diluted into different dilutions of 100 μmol/L (μM), 60 μM, 30 μM, 10 μM, 3 μM, 1 μM, 0.3 μM, and 0 using the PBS to obtain the samples. Each of the different dilutions is ensured to have a volume of no less than 400 μL and separately packaged on EP tubes. The samples are placed on a test plate of the GE Biacore T200, and the test plate is stuck in a test slot; [0039] b.
With YSYIQK (also called YSYIQK; third peptide) [Peptide21], the Kd stood at 36.8 µM.

With YTYIQK (also called YTYIQK) [Peptide23], the Kd was found to be 46.5 µM.

YKYKYL (also called YKYKYL; first peptide) [Peptide12] yielded a Kd of 21.4 µM.

In the case of YRYRYL (also called YRYRYL; second peptide) [Peptide13], the Kd worked out at 25.3 µM.
